Positions count from the first letter of the chain named. In names and notes the source's numbering stands.
Target: SARS-CoV-2 S receptor-binding domain (RBD), construct for crystallography (SARS-CoV-2, GenBank QHD43416.1 …, UniProt P0DTC2)
Assay: crystal structure

B1: C1A-B3 Fab (Fab, V domains shown)
VH: EVQLVESGGGLIQPGGSLRLSCAASGFTVSSNYMSWVRQAPGKGLEWVSVIYSGGTTYYADSVKGRFTISRDNSKNTVFLQMNSLRAEDTAVYYCARGDVSGYRYGLDYWGQGTLVTVS
VL: DIQLTQSPSSLSASVGDRVTITCRASQGISSYLAWYQQKPGKAPKLLIYAASTLQSGVPSRFSGSGSGTDFTLTISSLQPEDFATYYCQQLNSYPGTFGQGTKLEIK
Does B1 bind?
Result: binds

B2: C1A-F10 Fab (Fab, V domains shown)
VH: B1 VH with V78L, F79Y
VL: B1 VL with Q55E, S56N
Does B2 bind?
Result: binds

B3: C1A-C2 Fab (Fab, V domains shown)
VH: B1 VH with A24V, S31N, V78L, F79Y
VL: B1 VL with S14F, Q27E, K42N, Q55E
Does B3 bind?
Result: binds

Source: doi:10.1101/2020.11.13.381533 (bioRxiv, 2020)
